The target of series [1] is T1, TcJAMYC1 (Taxus cuspidata (cell culture line P991), UniProt B9VVN9 1-660). Kind of series: EMSA; 25-75 ng protein; 20 mM HEPES-KOH pH 7.9, 20% glycerol, 0.2 mM EDTA, 100 mM KCl, 0.5 mM PMSF, 1 mM DTT, 15 mM MgCl2, 5 ug BSA; 175 fmol probe in 20 ul; gel 7% PAGE, 0.5X TBE, 4 C; binding temperature not stated. Conditions: protein: recombinant; tags: N-terminal 6xHis (pDEST17); chain copies: 2; label: 32P by Klenow fill-in when probe; 5' overhang 4 nt at both ends; labeled probe filled in.

Series [2] deals with T1, TcJAMYC1. Kind of series: EMSA; 25-100 ng protein; 20 mM HEPES-KOH pH 7.9, 20% glycerol, 0.2 mM EDTA, 100 mM KCl, 0.5 mM PMSF, 1 mM DTT, 15 mM MgCl2, 5 ug BSA; 175 fmol probe in 20 ul; gel 7% PAGE, 0.5X TBE, 4 C; binding temperature not stated. Conditions: protein: recombinant; tags: N-terminal 6xHis (pDEST17); chain copies: 2; label: 32P by Klenow fill-in when probe; 5' overhang 4 nt at both ends; labeled probe filled in.

The target of a further series is GUS (beta-glucuronidase) (UniProt P05804 1-603). As to the kind of experiment: EMSA; 25-75 ng protein; 20 mM HEPES-KOH pH 7.9, 20% glycerol, 0.2 mM EDTA, 100 mM KCl, 0.5 mM PMSF, 1 mM DTT, 15 mM MgCl2, 5 ug BSA; 175 fmol probe in 20 ul; gel 7% PAGE, 0.5X TBE, 4 C; binding temperature not stated. Conditions: protein: recombinant; label: 32P by Klenow fill-in when probe; 5' overhang 4 nt at both ends; labeled probe filled in. (In general: In EMSA bound probe runs differently from free probe, usually more slowly.)

Series [3] deals with T1, TcJAMYC1. As to the kind of experiment: competition EMSA; vs CATGTG probe; competes better than CATGTG self; 20 mM HEPES-KOH pH 7.9, 20% glycerol, 0.2 mM EDTA, 100 mM KCl, 0.5 mM PMSF, 1 mM DTT, 15 mM MgCl2, 5 ug BSA; 175 fmol probe in 20 ul; gel 7% PAGE, 0.5X TBE, 4 C; binding temperature not stated. Conditions: protein: recombinant; tags: N-terminal 6xHis (pDEST17); chain copies: 2; label: 32P by Klenow fill-in when probe; 5' overhang 4 nt at both ends; labeled probe filled in.

T1 sequence (B9VVN9 entry or part of it): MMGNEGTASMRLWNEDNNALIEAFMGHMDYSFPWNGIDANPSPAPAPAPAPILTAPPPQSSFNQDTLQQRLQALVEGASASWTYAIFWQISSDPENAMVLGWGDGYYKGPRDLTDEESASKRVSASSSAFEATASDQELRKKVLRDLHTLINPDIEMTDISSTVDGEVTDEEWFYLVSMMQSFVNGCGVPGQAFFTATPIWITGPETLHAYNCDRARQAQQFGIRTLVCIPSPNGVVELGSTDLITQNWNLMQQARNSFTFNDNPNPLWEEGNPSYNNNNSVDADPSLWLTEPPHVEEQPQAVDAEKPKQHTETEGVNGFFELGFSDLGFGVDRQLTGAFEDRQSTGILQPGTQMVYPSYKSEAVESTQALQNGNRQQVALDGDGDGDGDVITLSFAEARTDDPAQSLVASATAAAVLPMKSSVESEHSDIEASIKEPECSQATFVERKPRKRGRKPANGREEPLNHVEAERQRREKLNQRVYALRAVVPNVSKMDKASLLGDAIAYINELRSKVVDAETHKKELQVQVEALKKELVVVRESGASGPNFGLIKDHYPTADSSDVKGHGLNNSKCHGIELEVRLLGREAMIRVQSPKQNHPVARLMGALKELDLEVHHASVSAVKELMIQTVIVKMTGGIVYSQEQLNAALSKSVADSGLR
GUS (beta-glucuronidase), sequence (P05804 whole entry): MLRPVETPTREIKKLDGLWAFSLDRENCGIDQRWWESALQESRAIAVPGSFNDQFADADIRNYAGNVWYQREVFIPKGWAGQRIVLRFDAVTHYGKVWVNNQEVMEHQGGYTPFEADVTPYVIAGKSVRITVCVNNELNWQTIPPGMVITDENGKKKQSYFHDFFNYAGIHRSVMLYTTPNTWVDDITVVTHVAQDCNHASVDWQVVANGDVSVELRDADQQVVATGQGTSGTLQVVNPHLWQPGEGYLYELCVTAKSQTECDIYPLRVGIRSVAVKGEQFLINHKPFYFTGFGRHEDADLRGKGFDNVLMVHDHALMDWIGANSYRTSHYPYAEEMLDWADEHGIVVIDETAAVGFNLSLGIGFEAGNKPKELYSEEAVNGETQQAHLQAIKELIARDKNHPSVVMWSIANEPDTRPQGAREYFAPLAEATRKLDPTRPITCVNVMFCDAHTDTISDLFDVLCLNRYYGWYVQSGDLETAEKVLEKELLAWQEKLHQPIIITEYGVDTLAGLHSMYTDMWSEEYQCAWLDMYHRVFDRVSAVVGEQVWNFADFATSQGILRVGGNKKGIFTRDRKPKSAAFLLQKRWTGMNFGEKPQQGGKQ

B1: Mutated (no E-box) (dsDNA)
DNA 1: TAGCGCATCGATAAGCCTATCGATCG
DNA 2: CGTACGATCGATAGGCTTATCGATGC
For the molecule B1, the binding result with TcJAMYC1 [1] is recorded as “no binding”.

B2: CATGTG E-box (dsDNA)
DNA 1: TAGCGCATCGATCATGTGATCGATCG
DNA 2: CGTACGATCGATCACATGATCGATGC
Turning to B2, the binding result is recorded as “binds” with TcJAMYC1 [2] and “no binding” in the series with GUS (beta-glucuronidase).

B3: CACGTG E-box (dsDNA)
DNA 1: TAGCATCGATCGCACGTGATCGATCG
DNA 2: CGTACGATCGATCACGTGCGATCGAT
In the case of B3, the binding result in the series with TcJAMYC1 [3] is reported as “binds”.

For the origin of these results see publication PMC4341510, “Jasmonate-responsive expression of paclitaxel biosynthesis genes in Taxus cuspidata cultured cells is negatively regulated by the bHLH transcription factors TcJAMYC1, TcJAMYC2, and TcJAMYC4”.
